{"source": "paper PMC2275097", "key": {"[1]": {"biological_target": "T1, hLon (human Lon protease) (Homo sapiens, UniProt P36776 68-959)", "T1 sequence": "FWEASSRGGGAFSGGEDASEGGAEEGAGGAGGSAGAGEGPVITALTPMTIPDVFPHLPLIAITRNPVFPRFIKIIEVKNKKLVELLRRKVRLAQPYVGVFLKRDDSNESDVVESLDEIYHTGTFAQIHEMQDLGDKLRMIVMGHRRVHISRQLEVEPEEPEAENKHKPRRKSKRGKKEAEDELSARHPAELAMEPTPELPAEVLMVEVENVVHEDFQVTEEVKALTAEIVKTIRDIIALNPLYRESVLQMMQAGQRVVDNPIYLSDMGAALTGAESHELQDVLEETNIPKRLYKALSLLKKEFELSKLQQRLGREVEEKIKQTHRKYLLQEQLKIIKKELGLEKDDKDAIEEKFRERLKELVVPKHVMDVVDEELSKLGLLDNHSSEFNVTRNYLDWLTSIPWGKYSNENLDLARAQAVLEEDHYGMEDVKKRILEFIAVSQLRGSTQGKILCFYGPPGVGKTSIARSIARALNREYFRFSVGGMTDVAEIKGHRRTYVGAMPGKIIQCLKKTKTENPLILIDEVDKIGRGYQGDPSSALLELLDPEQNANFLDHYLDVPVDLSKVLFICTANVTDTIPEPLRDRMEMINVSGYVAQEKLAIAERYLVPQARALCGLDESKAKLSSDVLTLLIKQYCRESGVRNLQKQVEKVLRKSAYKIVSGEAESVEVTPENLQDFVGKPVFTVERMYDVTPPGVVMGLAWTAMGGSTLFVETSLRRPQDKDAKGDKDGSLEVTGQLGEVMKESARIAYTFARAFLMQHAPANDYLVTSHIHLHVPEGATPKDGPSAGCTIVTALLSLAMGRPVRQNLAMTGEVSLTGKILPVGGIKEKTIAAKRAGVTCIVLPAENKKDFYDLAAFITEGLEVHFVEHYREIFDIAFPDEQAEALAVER", "experiment": "ITC"}, "[2]": {"biological_target": "T1, hLon (human Lon protease)", "experiment": "ITC", "remark": "listed apart in the source"}, "[3]": {"biological_target": "T1, hLon (human Lon protease)", "experiment": "ITC", "remark": "listed apart in the source"}, "[4]": {"biological_target": "T1, hLon (human Lon protease)", "experiment": "ITC", "remark": "listed apart in the source"}, "[5]": {"biological_target": "T1, hLon (human Lon protease)", "experiment": "ITC", "remark": "listed apart in the source"}, "[6]": {"biological_target": "T1, hLon (human Lon protease)", "experiment": "competition"}, "[7]": {"biological_target": "T1, hLon (human Lon protease)", "experiment": "ITC", "remark": "listed apart in the source"}}, "note": "Read-outs that look alike come from different tables or passages of the source."}
{"binder": "TGGGGGGT (structured_DNA)", "note": "[TG6T]", "values": [{"measurement": "Ka", "setting": "[1]", "result": "1.24 ± 0.58 10^5 M^-1"}, {"measurement": "Ka", "setting": "[2]", "result": "3.48 ± 0.36 10^5 M^-1"}, {"measurement": "Ka", "setting": "[3]", "result": "1.35 ± 0.89 10^5 M^-1"}, {"measurement": "Ka", "setting": "[4]", "result": "1.36 ± 0.22 10^5 M^-1"}, {"measurement": "Kd", "setting": "[5]", "result": 7.35, "unit": "µM"}]}
{"binder": "GTGTTAGTTGGGGGGTGA (structured_DNA)", "note": "[LSPas18]", "values": [{"measurement": "binding result", "setting": "[6]", "result": "binds"}]}
{"binder": "AATAATGTGTTAGTTGGGGGGTGA (structured_DNA)", "note": "[LSPas]", "values": [{"measurement": "Ka", "setting": "[7]", "result": "2.11 ± 0.11 10^5 M^-1"}, {"measurement": "Ka", "setting": "[2]", "result": "2.6 ± 0.72 10^5 M^-1"}, {"measurement": "Ka", "setting": "[3]", "result": "2.45 ± 0.43 10^5 M^-1"}, {"measurement": "Ka", "setting": "[4]", "result": "3.03 ± 0.83 10^5 M^-1"}]}
